Laboratory results: US20130266574A1 (Regeneron, published 2013)

T1: amino acid residues 26-148 of human ANGPTL4 fused in-line to mouse IgG2a (hANGPTL4-mFc) (human)
T1 chain: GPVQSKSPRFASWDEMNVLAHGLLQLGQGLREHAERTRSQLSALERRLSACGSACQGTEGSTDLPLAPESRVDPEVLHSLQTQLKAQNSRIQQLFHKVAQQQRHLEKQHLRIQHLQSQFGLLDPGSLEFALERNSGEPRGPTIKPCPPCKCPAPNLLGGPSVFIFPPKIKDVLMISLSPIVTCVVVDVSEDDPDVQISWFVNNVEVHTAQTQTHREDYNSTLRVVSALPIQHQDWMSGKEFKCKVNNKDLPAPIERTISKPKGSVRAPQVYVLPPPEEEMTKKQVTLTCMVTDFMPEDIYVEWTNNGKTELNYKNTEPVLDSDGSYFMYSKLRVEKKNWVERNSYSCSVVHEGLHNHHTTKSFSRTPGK

T2: full-length hANGPTL4 (amino acid residues 26-406 of SEQ ID NO:476) with a C-terminal hexa-histidine tag (human, UniProt Q9BY76 26-406)
T2 sequence: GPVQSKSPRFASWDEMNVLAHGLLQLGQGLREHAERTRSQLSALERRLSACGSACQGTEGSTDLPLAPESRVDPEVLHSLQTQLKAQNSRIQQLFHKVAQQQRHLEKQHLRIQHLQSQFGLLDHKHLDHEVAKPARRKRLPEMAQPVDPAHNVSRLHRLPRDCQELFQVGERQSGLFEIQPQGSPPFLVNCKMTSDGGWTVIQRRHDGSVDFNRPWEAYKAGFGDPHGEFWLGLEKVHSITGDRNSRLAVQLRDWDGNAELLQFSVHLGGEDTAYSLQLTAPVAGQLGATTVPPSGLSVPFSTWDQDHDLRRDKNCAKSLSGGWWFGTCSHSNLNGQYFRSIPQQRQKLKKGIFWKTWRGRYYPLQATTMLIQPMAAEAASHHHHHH


Key:
[1] = target: T1, amino acid residues 26-148 of human …; experiment: cell-based or functional assay
[2] = target: T2, full-length hANGPTL4 (amino acid …); experiment: cell-based or functional assay
[3] = target: T1, amino acid residues 26-148 of human …; experiment: SPR (Biacore T100), hANGPTL4-mFc captured by anti-mouse IgG, antibody injected, 25° C.
Experimental: (§1) Antigen-antibody binding and dissociation were monitored in real time at 25° C. and 37° C. Kinetic analysis was performed to calculate KD and half-life of antigen/antibody complex dissociation.

[4] = target: T1, amino acid residues 26-148 of human …; experiment: SPR (Biacore T100), hANGPTL4-mFc captured by anti-mouse IgG, antibody injected, 37° C.
Experimental: as §1

[5] = target: T1, amino acid residues 26-148 of human …; experiment: cell-based or functional assay
[6] = target: T2, full-length hANGPTL4 (amino acid …); experiment: cell-based or functional assay; remark: listed apart in the source
[7] = target: T1, amino acid residues 26-148 of human …; experiment: SPR (Biacore), pH 7.4, 25° C., protocol of Example 3
Experimental: as §1
Furthermore, a single amino acid substitution was introduced in the framework region 1 of H1H268P (SEQ ID NO:42) to form H4H268P2 (SEQ ID NO:487) in the IgG4 version.

Binder	% Inhibition of hANGPTL4 Activity (LPL lipase test), hANGPTL4-mFc (2 nM) [1] [%]	% Inhibition of hANGPTL4 Activity (LPL lipase test), hANGPTL4-His (10 nM) [2] [%]	Kd [3] [nM]	t1/2 [3] [h]	Kd [4] [nM]	t1/2 [4] [h]	IC50 (nM) in the LPL inhibition assay, constant ANGPTL4 2 nM [5] [nM]	IC50 (nM) in the LPL inhibition assay, constant ANGPTL4 10 nM [6] [nM]	Kd [7] [nM]	t1/2 [7] [h]
H1H236N2 (antibody, V domains shown) VH: EVQLVESGGGLVQPGRSLRLSCAASGFTFDDYAMHWVRQAPGKGLEWVSGISWNSGSIVYADSVKGRFTISRDNAKNSLYLQMNSLISEDTALYYCAKDESSSSGNWFDPWGQGTLVTVSS VL: EVVMTQSPATLSVSPGERATLSCRASQSVSSNLAWYQQKPGQAPRLLIYGASTRATGIPARFSGSGSGTEFTLTISSLQSEDFAVYYCQEYNNWITFGQGTRLEIK	13	19								
H1H653P (antibody, V domains shown, Fully human antibody, H1H prefix (human IgG1)) VH: QVQLVESGGGVVQPGRSLRLSCVASGFTFSSYGMHWVRQAPGKGLEWMAVIWYDGSNKYFADSVKDRFTISRDNSKNTLYLQMNTLRPDDTAVYYCVKADAPLLIYGVDVWGQGTTVTVS VL: DIQMTQSPSSLSASVGDRVTITCRASQGIRNDLGWYQEKPGKAPKRLIYFASSLQSGVPSRFSGSGSGTEFTLTISSLQPEDFATYYCLQHNSYPYTFGQGTKLEIK	55	48	0.411	0.717	2.13	0.1				
H4H268P2 (antibody, human IgG4 S228P, V domains shown, IgG4 version of H1H268P) VH: QVQLQQSGAGLLKPSETLSLTCTVYGGSFSIHHWTWIRHPPGKGLEWIGEINHRGSTNYNPSLKSRVTISIDTSKNQFSLKLSAVTAADTAVYYCARGLRFLDWLSSYFDYWGQGTLVTVSS VL: DIQMTQSPSSLSASVGDRVTITCRASQGISDYLAWYQQKPGKVPNLLIYAASALQSGVPSRFSGSGSGTDFTLTISSLQPEDVATYYCQNYNTAPLTFGGGTKVEIK							1.85	1.61	0.146	3.25
H1H292P (antibody, V domains shown, Fully human antibody, H1H prefix (human IgG1)) VH: EVQLVESGGGLVQPGGSLRLSCVASGFTFSSYDMHWVRQLPGKGLEWVSAIGVAGDTYYPASVKGRFTISRENAKNSLYLQMNSLRAGDTAVYYCARGDSGNYYDGDYFDFWGQGTLVTVSS VL: DIQMTQSPSTLSASVGDRVTITCRASQSINRWLAWYQQKPGKAPKVLIYKASNLESGVPSRFSGSGSGTEFTLTISSLQPDDFATYYCQQYDSYFRTFGQGTKVEIK	20	53	0.136	1.87	0.167	1.47				
H1H285P (antibody, V domains shown, Fully human antibody, H1H prefix (human IgG1)) VH: EVQLVESGGGLVQPGGSLRLSCAASGFTFSRYDMHWVRQVTGKGLEWVSGIGTAGDTYYPGSVKGRFTISRENDKNSLYLQMNSLRVGDTAVYYCARGDSKNYYVGDYFDYWGQGTLVTVSS VL: DIQMTQSPSTLSASVGDRVTFTCRASHSIGNWLAWYQQKPGKAPKVLIYEASSLEDGVPSRFSGSGSGTEFTLTISSLQPDDFATYYCQQYDTYFRTFGQGTKVEIK	28	47	0.0925	2.6	0.194	1.18				
H1H291P (antibody, V domains shown, Fully human antibody, H1H prefix (human IgG1)) VH: EVQLVESGGGLVQPGGSLRLSCAASGFTFSTYDMHWVRQGLGKGLEWVSAIGSAGDTYYPGSVKGRFTISRDNAKSSLFLHMNSLRAGDTALYYCARGDSRNYFVGDYFDYWGQGTLVTVSS VL: DIQMTQSPSTLSASIGDRVTITCRASQSISSWLAWYQQKPGKAPKVLIYKASSLEAGVPSRFSGSGSGTEFTLTISSLQPDDFASYYCQQYSSYSRTFGQGTKVEIK			0.0876	5.05	0.178	2.03				
H1H283P (antibody, V domains shown, Fully human antibody, H1H prefix (human IgG1)) VH: EVQLVESGGGLVQPGGSLRLSCAASGFTFSSYDMHWVRQVAGKGLEWVSAIGTAGDTYYPVSVKGRFTISRENAKNSLYLHMNSLRAGDTAVYFCARGDSRNYYVGDYFDYWGQGTLVTVSS VL: DIQMTQSPSTLSASVGDRVTITCRASQSISRWLAWYQQKPGKAPKVLIYKASNLESGVPSRFSGSGSGTEFTLTISSLQPDDFATYYCQQYNSYSRTFGQGTKVEIK			0.13	1.98	1.36	0.2				
H1H644P (antibody, V domains shown, Fully human antibody, H1H prefix (human IgG1)) VH: EVQLVESGGGLVQPGGSLRLSCAASGFTFSSYDMHWVRQVAGKGLEWVSAIGTAGDTYYPVSVKGRFTISRENAKNSLYLHMNSLRAGDTAVYYCARGDSRNYYVGDYFDYWGQGTLVTVSS VL: DIQMTQSPSTLSASVGDRVTITCRASQSISRWLAWYQQKPGKAPKVLIYKASNLESGVPSRFSGSGSGTEFTLTISSLQPDDFATYYCQQYNTYSRTFGQGTKVEIK			0.111	2.4	3	0.1				
H1H257P (antibody, V domains shown, Fully human antibody; the H1H prefix stands for human IgG1 (said outright only for H1H268P and H1H284P)) VH: EVQLVESGGGLVQPGGSLRLSCAASGFTFSSYDMHWVRQVAGKGLEWVSAIGTAGDTYYPVSVKGRFTISRENAKNSLYLHMNSLRAGDTAVYFCARGDSRNYYVGDYFDYWGQGTLVTVSS VL: DIQMTQSPSTLSASVGDRVTITCRASQSISRWLAWYQQKPGKAPKVLIYQASNLESGVPSRFSGSGSGTEFTLTISSLQPDDFATYYCQQYDSYSRAFGRGTKVEIK	16		0.201	1.52	0.238	1.05				
H1H638P (antibody, V domains shown, Fully human antibody, H1H prefix (human IgG1)) VH: EVQLVESGGGLVQPGGSLRLSCVASGFTFSSYDMHWVRQVAGKGLEWVAAIGTAGDTYYPVSVKGRFTISRENAKNSLSLHMNSLRAGDTAVYYCARGDSRNYYVGDYFDYWGQGTLVTVSS VL: DIQMTQSPSTLSASVGDRVTITCRASQSISRWLAWYQQKPGKAPKVLIYKASSLKSGVPSRFSGSGSGTEFTLTISSLQSDDFATYYCQQYNSYSRTFGQGTKVEIK			0.193	1.42	0.299	0.8				
H1H295P (antibody, V domains shown, Fully human antibody, H1H prefix (human IgG1)) VH: EVQLVESGGGLVQPGGSLRLSCAASGFTFSTYDMHWVRQAPGKGLEWVSAIGSAGDTYYPGSVKGRFTISRDNAKSSLFLQMNSLRAGDTALYYCARGDSRNYFVGDYFDYWGQGTLVTVSS VL: DIQMTQSPSTLSASVGDRVTITCRASQSIGTWLAWYQQKPGKAPKILIYKASSLEGGVPSRFSGSGSGTEFTLTISSLQPDDFANYYCQQYNSFYRTFGQGTKVEIK			0.0307	14.6	2.62	0.167				
H1H624P (antibody, V domains shown, Fully human antibody, H1H prefix (human IgG1)) VH: EVQLVESGGGLVQPGGSLRLSCAASEFIFSSYAMNWVRQAPGKGLEWVSVISGSGDSKYYADSVKGRFTISRDNSKNTLYLQMNSLRVEDTAVYYCAKDGKDRYGFYYNFYGMDVWGQGTTVTVS VL: DIQMTQSPSFLSASVGDRVTITCWASQGISSYLAWYQQKPGKAPKILIYAASTLQSGVPSRFSASGSGTEFTLTISSLQPEDFATYHCQQLNSYPFTFGPGTKVDIK	62	48	1.19	0.117	3.71	0.05				
H4H284P (antibody, human IgG4 S228P, V domains shown, IgG4 version of H1H284P (constant region replaced)) VH: QVQLVESGGGVVQPGRSLRLSCAASGFTFSSYGMHWVRQAPGKGLEWMAVISFDGGNKNNADSVKGRFTISRDNSKNTLYLQMNSLRAEDTAVYYCAKEGDRSGHPYFYYYGLDVWGQGTTVTVSA VL: DIQLTQSPSFLSASVGDRVTITCWASQGISSYLAWYQQKPGKAPKLLIYAASTLQSGVPSRFSGSGSETEFTLTISSLQPEDFATYYCQQLHSYPLTFGGGTKVEIK							1.69	1.19	0.143	3.42
